Measurements from patent US20100260668A1 (published 2010).

molecular target: T1, DLL4 ECD His tag (UniProt Q9NR61 27-529, limits assumed); test: SPR (Biacore), DVD-Ig captured, DLL4 as analyte
T1 construct: extracellular domain; also called DLL ECD His tag

Row | Binder | Kd [nM] | koff [s⁻¹] | kon [M⁻¹ s⁻¹]
1 | DVD450 (bispecific antibody, human IgG1, kappa, HC linker long, LC linker long; also called DVD-Ig DVD450) heavy: not shown light: DIQMTQSPSSLSASVGDRVTITCRASQDVSTAVAWYQQKPGKAPKLLIYSASFLYSGVPSRFSGSGSGTDFTLTISSLQPEDFATYYCQQSYTTPPTFGQGTKVEIKRTVAAPSVFIFPPDIVMTQSPDSLAVSLGERATISCRASESVDNYGISFMKWFQQKPGQPPKLLIYAASNQGSGVPDRFSGSGSGTDFTLTISSLQAEDVAVYYCQQSKEVPWTFGGGTKVEIKRTVAAPSVFIFPPSDEQLKSGTASVVCLLNNFYPREAKVQWKVDNALQSGNSQESVTEQDSKDSTYSLSSTLTLSKADYEKHKVYACEVTHQGLSSPVTKSFNRGEC | 7.41 | 0.000251 | 33800
2 | DVD520 (bispecific antibody, human IgG1, kappa, lambda, HC linker long, LC linker long; also called DVD-Ig DVD520) heavy: not shown light: DIQMTQSPSSLSASVGDRVTITCRASQDVSTAVAWYQQKPGKAPKLLIYSASFLYSGVPSRFSGSGSGTDFTLTISSLQPEDFATYYCQQSYTTPPTFGQGTKVEIKRTVAAPSVFIFPPQAVVTQESALTTSPGETVTLTCRSSTGAVTTSNYANWVQEKPDHLFTGLIGGTNNRAPGVPARFSGSLIGDKAALTITGAQTEDEAIYFCALWYSNHWVFGGGTKLTVLGQPKAAPSVTLFPPSSEELQANKATLVCLISDFYPGAVTVAWKADSSPVKAGVETTTPSKQSNNKYAASSYLSLTPEQWKSHRSYSCQVTHEGSTVEKTVAPTECS | 3.3 | 0.000408 | 124000
3 | DVD532 (bispecific antibody, human IgG1, kappa, lambda, HC linker short, LC linker long; also called DVD-Ig DVD532) heavy: not shown light: DIQMTQSPSSLSASVGDRVTITCRASQDVSTAVAWYQQKPGKAPKLLIYSASFLYSGVPSRFSGSGSGTDFTLTISSLQPEDFATYYCQQSYTTPPTFGQGTKVEIKRTVAAPSVFIFPPQAVVTQESALTTSPGETVTLTCRSSTGAVTTSNYANWVQEKPDHLFTGLIGGTNNRAPGVPARFSGSLIGDKAALTITGAQTEDEAIYFCALWYSNHWVFGGGTKLTVLGQPKAAPSVTLFPPSSEELQANKATLVCLISDFYPGAVTVAWKADSSPVKAGVETTTPSKQSNNKYAASSYLSLTPEQWKSHRSYSCQVTHEGSTVEKTVAPTECS | 6.85 | 0.00081 | 118000
4 | DVD514 (bispecific antibody, human IgG1, lambda, HC linker short, LC linker short; also called DVD-Ig DVD514) heavy: not shown light: DIQMTQSPSSLSASVGDRVTITCRASQDVSTAVAWYQQKPGKAPKLLIYSASFLYSGVPSRFSGSGSGTDFTLTISSLQPEDFATYYCQQSYTTPPTFGQGTKVEIKRTVAAPQAVVTQESALTTSPGETVTLTCRSSTGAVTTSNYANWVQEKPDHLFTGLIGGTNNRAPGVPARFSGSLIGDKAALTITGAQTEDEAIYFCALWYSNHWVFGGGTKLTVLGQPKAAPSVTLFPPSSEELQANKATLVCLISDFYPGAVTVAWKADSSPVKAGVETTTPSKQSNNKYAASSYLSLTPEQWKSHRSYSCQVTHEGSTVEKTVAPTECS | 3.48 | 0.000432 | 124000
5 | DVD526 (bispecific antibody, human IgG1, lambda, HC linker long, LC linker short; also called DVD-Ig DVD526) heavy: not shown light: DIQMTQSPSSLSASVGDRVTITCRASQDVSTAVAWYQQKPGKAPKLLIYSASFLYSGVPSRFSGSGSGTDFTLTISSLQPEDFATYYCQQSYTTPPTFGQGTKVEIKRTVAAPQAVVTQESALTTSPGETVTLTCRSSTGAVTTSNYANWVQEKPDHLFTGLIGGTNNRAPGVPARFSGSLIGDKAALTITGAQTEDEAIYFCALWYSNHWVFGGGTKLTVLGQPKAAPSVTLFPPSSEELQANKATLVCLISDFYPGAVTVAWKADSSPVKAGVETTTPSKQSNNKYAASSYLSLTPEQWKSHRSYSCQVTHEGSTVEKTVAPTECS | 5.55 | 0.000629 | 113000

The next binders have a lower Kd than those just listed; values first:

Row | Kd [nM] | koff [s⁻¹] | kon [M⁻¹ s⁻¹] | Binder
6 | 2.98 | 0.00025 | 83900 | DVD462 (bispecific antibody, human IgG1, kappa, HC linker short, LC linker long; also called DVD-Ig DVD462) heavy: not shown light: DIQMTQSPSSLSASVGDRVTITCRASQDVSTAVAWYQQKPGKAPKLLIYSASFLYSGVPSRFSGSGSGTDFTLTISSLQPEDFATYYCQQSYTTPPTFGQGTKVEIKRTVAAPSVFIFPPDIVMTQSPDSLAVSLGERATISCRASESVDNYGISFMKWFQQKPGQPPKLLIYAASNQGSGVPDRFSGSGSGTDFTLTISSLQAEDVAVYYCQQSKEVPWTFGGGTKVEIKRTVAAPSVFIFPPSDEQLKSGTASVVCLLNNFYPREAKVQWKVDNALQSGNSQESVTEQDSKDSTYSLSSTLTLSKADYEKHKVYACEVTHQGLSSPVTKSFNRGEC
7 | 1.66 | 0.000174 | 104000 | DVD456 (bispecific antibody, human IgG1, kappa, HC linker long, LC linker short; also called DVD-Ig DVD456) heavy: not shown light: DIQMTQSPSSLSASVGDRVTITCRASQDVSTAVAWYQQKPGKAPKLLIYSASFLYSGVPSRFSGSGSGTDFTLTISSLQPEDFATYYCQQSYTTPPTFGQGTKVEIKRTVAAPDIVMTQSPDSLAVSLGERATISCRASESVDNYGISFMKWFQQKPGQPPKLLIYAASNQGSGVPDRFSGSGSGTDFTLTISSLQAEDVAVYYCQQSKEVPWTFGGGTKVEIKRTVAAPSVFIFPPSDEQLKSGTASVVCLLNNFYPREAKVQWKVDNALQSGNSQESVTEQDSKDSTYSLSSTLTLSKADYEKHKVYACEVTHQGLSSPVTKSFNRGEC
8 | 1.44 | 0.000172 | 120000 | DVD496 (bispecific antibody, human IgG1, kappa, HC linker long, LC linker long; also called DVD-Ig DVD496) heavy: not shown light: DIQMTQSPSSLSASVGDRVTITCRASQDVSTAVAWYQQKPGKAPKLLIYSASFLYSGVPSRFSGSGSGTDFTLTISSLQPEDFATYYCQQSYTTPPTFGQGTKVEIKRTVAAPSVFIFPPDIQMTQSSSYLSVSLGGRVTITCKASDHINNWLAWYQQKPGNAPRLLISGATSLETGVPSRFSGSGSGKDYTLSITSLQTEDVATYYCQQYWSIPLTFGAGTKLELKRTVAAPSVFIFPPSDEQLKSGTASVVCLLNNFYPREAKVQWKVDNALQSGNSQESVTEQDSKDSTYSLSSTLTLSKADYEKHKVYACEVTHQGLSSPVTKSFNRGEC
9 | 1.7 | 0.000167 | 98400 | DVD508 (bispecific antibody, human IgG1, kappa, HC linker short, LC linker long; also called DVD-Ig DVD508) heavy: not shown light: DIQMTQSPSSLSASVGDRVTITCRASQDVSTAVAWYQQKPGKAPKLLIYSASFLYSGVPSRFSGSGSGTDFTLTISSLQPEDFATYYCQQSYTTPPTFGQGTKVEIKRTVAAPSVFIFPPDIQMTQSSSYLSVSLGGRVTITCKASDHINNWLAWYQQKPGNAPRLLISGATSLETGVPSRFSGSGSGKDYTLSITSLQTEDVATYYCQQYWSIPLTFGAGTKLELKRTVAAPSVFIFPPSDEQLKSGTASVVCLLNNFYPREAKVQWKVDNALQSGNSQESVTEQDSKDSTYSLSSTLTLSKADYEKHKVYACEVTHQGLSSPVTKSFNRGEC
10 | 0.528 | 7.7e-05 | 146000 | DVD490 (bispecific antibody, human IgG1, kappa, HC linker short, LC linker short; also called DVD-Ig DVD490) heavy: not shown light: DIQMTQSPSSLSASVGDRVTITCRASQDVSTAVAWYQQKPGKAPKLLIYSASFLYSGVPSRFSGSGSGTDFTLTISSLQPEDFATYYCQQSYTTPPTFGQGTKVEIKRTVAAPDIQMTQSSSYLSVSLGGRVTITCKASDHINNWLAWYQQKPGNAPRLLISGATSLETGVPSRFSGSGSGKDYTLSITSLQTEDVATYYCQQYWSIPLTFGAGTKLELKRTVAAPSVFIFPPSDEQLKSGTASVVCLLNNFYPREAKVQWKVDNALQSGNSQESVTEQDSKDSTYSLSSTLTLSKADYEKHKVYACEVTHQGLSSPVTKSFNRGEC
11 | 0.807 | 7.43e-05 | 92100 | DVD502 (bispecific antibody, human IgG1, kappa, HC linker long, LC linker short; also called DVD-Ig DVD502) heavy: not shown light: DIQMTQSPSSLSASVGDRVTITCRASQDVSTAVAWYQQKPGKAPKLLIYSASFLYSGVPSRFSGSGSGTDFTLTISSLQPEDFATYYCQQSYTTPPTFGQGTKVEIKRTVAAPDIQMTQSSSYLSVSLGGRVTITCKASDHINNWLAWYQQKPGNAPRLLISGATSLETGVPSRFSGSGSGKDYTLSITSLQTEDVATYYCQQYWSIPLTFGAGTKLELKRTVAAPSVFIFPPSDEQLKSGTASVVCLLNNFYPREAKVQWKVDNALQSGNSQESVTEQDSKDSTYSLSSTLTLSKADYEKHKVYACEVTHQGLSSPVTKSFNRGEC
